*1 amine or outer side, *2 acyl side, *3 side chain or, on linkers, in order; H or OH if unused. Where no end group is shown, it is not given here. [ ]: non-standard residue; d: D form. tpS = thiophosphoserine, O=C([C@H](COP(O)(O)=S)N[*:1])[*:2]
Molecular target: PP2A:B55 holoenzyme (PP2Aa, B55, PP2Ac) (UniProt P30153)
Sequence (P30153 9-589, chain 1 of 3): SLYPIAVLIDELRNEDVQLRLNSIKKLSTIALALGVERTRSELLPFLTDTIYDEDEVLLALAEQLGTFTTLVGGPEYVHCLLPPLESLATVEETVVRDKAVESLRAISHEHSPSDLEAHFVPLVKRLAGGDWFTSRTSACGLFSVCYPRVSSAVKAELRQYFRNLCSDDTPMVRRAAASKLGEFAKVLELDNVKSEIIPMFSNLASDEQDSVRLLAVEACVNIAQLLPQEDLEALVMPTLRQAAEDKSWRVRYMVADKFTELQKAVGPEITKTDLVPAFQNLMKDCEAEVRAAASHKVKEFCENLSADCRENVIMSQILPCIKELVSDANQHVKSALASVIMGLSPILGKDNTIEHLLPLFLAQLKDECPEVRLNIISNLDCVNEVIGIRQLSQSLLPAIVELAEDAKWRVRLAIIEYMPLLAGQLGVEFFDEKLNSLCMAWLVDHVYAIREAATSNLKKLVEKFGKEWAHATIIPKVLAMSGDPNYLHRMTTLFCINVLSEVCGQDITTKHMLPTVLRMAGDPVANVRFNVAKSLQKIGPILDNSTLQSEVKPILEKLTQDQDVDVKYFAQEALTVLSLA
Sequence (P63151 whole entry, chain 2 of 3, further chain): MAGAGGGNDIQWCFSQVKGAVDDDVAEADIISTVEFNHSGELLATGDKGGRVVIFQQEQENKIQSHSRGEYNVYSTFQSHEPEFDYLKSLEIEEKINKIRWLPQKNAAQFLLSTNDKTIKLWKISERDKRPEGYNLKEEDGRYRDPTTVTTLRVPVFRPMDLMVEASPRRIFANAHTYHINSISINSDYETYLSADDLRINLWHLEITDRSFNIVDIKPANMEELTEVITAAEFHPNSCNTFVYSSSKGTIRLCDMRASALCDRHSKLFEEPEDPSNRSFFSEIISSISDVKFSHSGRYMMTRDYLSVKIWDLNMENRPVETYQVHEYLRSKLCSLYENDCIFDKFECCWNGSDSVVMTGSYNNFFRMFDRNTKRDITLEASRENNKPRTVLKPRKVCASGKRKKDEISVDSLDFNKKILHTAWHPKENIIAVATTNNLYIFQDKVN
Sequence (P67775 whole entry, chain 3 of 3, further chain): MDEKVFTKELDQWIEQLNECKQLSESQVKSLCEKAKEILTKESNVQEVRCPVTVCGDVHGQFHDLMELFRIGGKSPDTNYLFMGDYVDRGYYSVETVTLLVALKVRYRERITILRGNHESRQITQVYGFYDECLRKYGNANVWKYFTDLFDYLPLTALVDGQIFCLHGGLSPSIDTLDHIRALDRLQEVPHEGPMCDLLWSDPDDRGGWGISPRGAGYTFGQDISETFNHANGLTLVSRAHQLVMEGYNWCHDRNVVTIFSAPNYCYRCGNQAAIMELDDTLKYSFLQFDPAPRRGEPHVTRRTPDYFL

IC50 of PP2A:B55 inhibition (DiFMUP), against tpARPP19: > 50 fold
B1: tpARPP19_(19–75) (domain or fragment)
chain: DKVTSPEKAEEAKLKARYPHLGQKPGGSDFLRKRLQKGQKYFD[tpS]GDYNMAKAKMKNK
modifications: also: thiophosphorylated, site not given here
